The record followed here is PMC10140343.

This assay has as its target recombinant ScCD8α extracellular IgSF V domain (Ser20-Met163) (small-spotted catshark (Scyliorhinus canicula)). Put plainly: native gel or EMSA; PAGE under non-reducing conditions of purified recombinant ScCD8α; Tris-Gly buffer pH 4.4, ice-water bath, 120 V, 2 h; band of approx. 32 kDa against approx. 16 kDa in reducing SDS-PAGE. A general note: A gel shift assay detects complexes by their altered migration in electrophoresis.

As for “recombinant ScCD8α extracellular IgSF V domain (Ser20-Met163) (domain or fragment)”, the stoichiometry N – broadly, a count of units in the complex or per binding partner – amounted to 2.
